± gives the uncertainty stated by the source.
Assay: self-splicing fitness, log relative to wild type (ln ratio); higher = more splicing; Tetrahymena group I intron in knt gene, E. coli kanamycin selection, DiMSum; sequences stand for … in CUCUCU…GGAGGGAAAAGUUAUCAGGCAUGCACCUGGUAGCUAGUCUUUAAACCAAUAGAUUGCAUCGGUUUAAAAGGCAAGACCGUCAAAUUGCGGGAAAGGGGUCAACAGCCGUUCAGUACCAAGUCUCAGGGGAAACUUUGAGAUGGCCUUGCAAAGGGUAUGGUAAUAAGCUGACGGACAUGGUCCUAACCACGCAGCCAAGUCCUAAGUCAACAGAUCUUCUGUUGAUAUGGAUGCAGUUCACAGACUAAAUGUCGGUCGGGGAAGAUGUAUUCUUCUCAUAAGAUAUAGUCGGACCUCUCCUUAAUGGGAGCUAGCGGAUGAAGUGAUGCAACACUGGAGCCGCUGGGAACUAAUUUGUAUGCGAAAGUAUAUUGAUUAGUUUUGGAGUACUCGUGGUCG
Procedure, shortened: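 Library with all eight P1ex-region intron nucleotides randomised, intron inside the knt kanamycin-resistance gene on pET-22b(+), in E. coli BL21(DE3). Cells grew overnight at 37°C or 30°C on LB agar with or without 25 μg/mL kanamycin (plus 100 μg/mL carbenicillin, 50 μM IPTG, 0.2% rhamnose), in six replicate transformations. Pooled colonies were amplicon-sequenced on Illumina HiSeq 2500. DiMSum fitness is the error-weighted combination of wild-type-normalised replicate fold changes, kanamycin versus none.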

Row | Sequence | self-splicing fitness (ln) (30 °C) | self-splicing fitness (ln) (37 °C)
1 | GUGUAGCAAUAUUACGGACG | -0.958 ± 0.14 | -1.32 ± 0.17
2 | GUGUAGCAAUAUUACGGAGG | -3.89 ± 0.29 | -2.67 ± 0.22
3 | GUGUAGCAAUAUUACGGUCU | -1.6 ± 0.2 | 0.619 ± 0.2
4 | GUGUAGCAAUAUUACGGUGU | -2.26 ± 0.16 | -0.0252 ± 0.14
5 | GUGUAGCAAUAUUACGUAGA | -3.14 ± 0.25 | -1.8 ± 0.36
6 | GUGUAGCAAUAUUACGUCCA | -1.74 ± 0.38 | -0.639 ± 0.39
7 | GUGUAGCAAUAUUACGUGCC | -3.46 ± 0.35 | -2.7 ± 0.32
8 | GUGUAGCAAUAUUACGUUAC | – | -2.56 ± 0.35
9 | GUUAAGCAAUAUUACGACAU | -0.0837 ± 0.013 | 0.118 ± 0.033
10 | GUUAAGCAAUAUUACGACGU | -0.121 ± 0.059 | 0.426 ± 0.069
11 | GUUAAGCAAUAUUACGACUU | 0.183 ± 0.11 | 0.278 ± 0.13
12 | GUUAAGCAAUAUUACGAGGC | -3.2 ± 0.28 | -1.34 ± 0.3
13 | GUUAAGCAAUAUUACGAUAA | -1.48 ± 0.18 | -0.923 ± 0.2
14 | GUUAAGCAAUAUUACGAUUC | 0.0872 ± 0.085 | -0.608 ± 0.11
15 | GUUAAGCAAUAUUACGCAGG | -3.11 ± 0.38 | -2.47 ± 0.31
16 | GUUAAGCAAUAUUACGCCGC | -3.02 ± 0.21 | -2.03 ± 0.31
17 | GUUAAGCAAUAUUACGCGUC | -3.23 ± 0.26 | -1.96 ± 0.2
18 | GUUAAGCAAUAUUACGCUGU | -2.62 ± 0.21 | -1.78 ± 0.17
19 | GUUAAGCAAUAUUACGGACG | -1.07 ± 0.12 | -1.3 ± 0.14
20 | GUUAAGCAAUAUUACGGAGA | -3.29 ± 0.26 | -2.57 ± 0.25
21 | GUUAAGCAAUAUUACGGCUA | 0.289 ± 0.099 | 0.176 ± 0.1
22 | GUUAAGCAAUAUUACGGGCG | -1.44 ± 0.1 | -0.388 ± 0.11
23 | GUUAAGCAAUAUUACGGGUA | -2.01 ± 0.14 | -1.39 ± 0.12
24 | GUUAAGCAAUAUUACGGGUG | -3.29 ± 0.15 | -2.39 ± 0.14
25 | GUUAAGCAAUAUUACGGUCC | -0.666 ± 0.12 | 0.191 ± 0.15

Row | Sequence | self-splicing fitness (ln) (30 °C) | self-splicing fitness (ln) (37 °C)
26 | GUUAAGCAAUAUUACGGUCU | -2.3 ± 0.14 | -0.0437 ± 0.12
27 | GUUAAGCAAUAUUACGGUUA | -1.33 ± 0.096 | -0.554 ± 0.096
28 | GUUAAGCAAUAUUACGUCAG | – | -2.22 ± 0.4
29 | GUUAAGCAAUAUUACGUGGC | – | -2.1 ± 0.33
30 | GUUCAGCAAUAUUACGAAAA | -0.216 ± 0.13 | 0.45 ± 0.15
31 | GUUCAGCAAUAUUACGAAUG | -0.469 ± 0.076 | 0.0253 ± 0.11
32 | GUUCAGCAAUAUUACGACAC | -0.34 ± 0.15 | 0.897 ± 0.18
33 | GUUCAGCAAUAUUACGACUA | -1.28 ± 0.17 | -0.368 ± 0.15
34 | GUUCAGCAAUAUUACGAUGC | -0.236 ± 0.17 | 0.2 ± 0.14
35 | GUUCAGCAAUAUUACGCAGA | -1.72 ± 0.2 | -1.3 ± 0.17
36 | GUUCAGCAAUAUUACGCAGU | -1.18 ± 0.14 | 0.201 ± 0.22
37 | GUUCAGCAAUAUUACGCCGU | -1.57 ± 0.1 | -0.339 ± 0.12
38 | GUUCAGCAAUAUUACGCGAC | -3.9 ± 0.29 | -1.22 ± 0.29
39 | GUUCAGCAAUAUUACGCGCA | -1.04 ± 0.2 | 0.567 ± 0.21
40 | GUUCAGCAAUAUUACGCUAA | -1.03 ± 0.2 | 0.184 ± 0.2
41 | GUUCAGCAAUAUUACGCUCG | 0.167 ± 0.12 | 0.0872 ± 0.15
42 | GUUCAGCAAUAUUACGCUUA | -0.682 ± 0.12 | -0.0254 ± 0.12
43 | GUUCAGCAAUAUUACGCUUC | -0.641 ± 0.11 | -0.661 ± 0.14
44 | GUUCAGCAAUAUUACGGCAU | -0.334 ± 0.067 | 0.567 ± 0.072
45 | GUUCAGCAAUAUUACGGGCC | -3.61 ± 0.2 | -2.25 ± 0.2
46 | GUUCAGCAAUAUUACGGGGG | -1.52 ± 0.13 | -1.4 ± 0.16
47 | GUUCAGCAAUAUUACGGUUA | -0.817 ± 0.098 | -0.352 ± 0.082
48 | GUUCAGCAAUAUUACGUAGU | -0.247 ± 0.11 | 0.369 ± 0.11
49 | GUUCAGCAAUAUUACGUGCC | -2.59 ± 0.2 | -1.19 ± 0.19
50 | GUUCAGCAAUAUUACGUGGU | -1.03 ± 0.057 | -0.621 ± 0.079

Row | Sequence | self-splicing fitness (ln) (30 °C) | self-splicing fitness (ln) (37 °C)
51 | GUUCAGCAAUAUUACGUGUG | -0.881 ± 0.066 | -0.806 ± 0.084
52 | GUUCAGCAAUAUUACGUUUU | -0.661 ± 0.052 | -0.216 ± 0.062
53 | GUUGAGCAAUAUUACGAAUC | -1.91 ± 0.26 | 0.505 ± 0.25
54 | GUUGAGCAAUAUUACGACAC | -0.129 ± 0.18 | -0.362 ± 0.19
55 | GUUGAGCAAUAUUACGAGAU | -2.7 ± 0.19 | -2.81 ± 0.31
56 | GUUGAGCAAUAUUACGAGCA | -2.68 ± 0.28 | -1.71 ± 0.32
57 | GUUGAGCAAUAUUACGAGCG | – | -1.37 ± 0.25
58 | GUUGAGCAAUAUUACGAGGG | -2.7 ± 0.21 | -2.67 ± 0.24
59 | GUUGAGCAAUAUUACGAGUU | – | -2.56 ± 0.33
60 | GUUGAGCAAUAUUACGAUUU | -1.2 ± 0.12 | -1.64 ± 0.16
61 | GUUGAGCAAUAUUACGCACA | -1.83 ± 0.14 | -0.945 ± 0.15
62 | GUUGAGCAAUAUUACGCAGA | -2.67 ± 0.34 | -3.6 ± 0.46
63 | GUUGAGCAAUAUUACGCAGC | -2.23 ± 0.35 | –
64 | GUUGAGCAAUAUUACGCCGA | -2.15 ± 0.41 | –
65 | GUUGAGCAAUAUUACGCGAU | -3.79 ± 0.3 | -2.47 ± 0.34
66 | GUUGAGCAAUAUUACGCUUU | -3.95 ± 0.48 | -2.45 ± 0.26
67 | GUUGAGCAAUAUUACGGACA | -0.932 ± 0.47 | -1.32 ± 0.43
68 | GUUGAGCAAUAUUACGGCUG | -1.41 ± 0.11 | -0.467 ± 0.14
69 | GUUGAGCAAUAUUACGGGAU | -3.14 ± 0.15 | -1.96 ± 0.15
70 | GUUGAGCAAUAUUACGGUGC | -2.79 ± 0.3 | -2.39 ± 0.44
71 | GUUGAGCAAUAUUACGUACG | -2.57 ± 0.39 | -2.31 ± 0.45
72 | GUUGAGCAAUAUUACGUACU | -2.91 ± 0.25 | -2.15 ± 0.2
73 | GUUGAGCAAUAUUACGUCUC | – | -0.823 ± 0.46
74 | GUUGAGCAAUAUUACGUGAC | -2.31 ± 0.24 | -2.48 ± 0.31
75 | GUUGAGCAAUAUUACGUGCA | -1.65 ± 0.45 | -0.908 ± 0.28

Row | Sequence | self-splicing fitness (ln) (30 °C) | self-splicing fitness (ln) (37 °C)
76 | GUUGAGCAAUAUUACGUGGA | -1.2 ± 0.37 | -2.45 ± 0.34
77 | GUUGAGCAAUAUUACGUUUA | -3.32 ± 0.28 | -2.33 ± 0.31
78 | GUUUAGCAAUAUUACGAACA | -2.02 ± 0.39 | -1.24 ± 0.26
79 | GUUUAGCAAUAUUACGACCC | -0.68 ± 0.19 | -0.133 ± 0.24
80 | GUUUAGCAAUAUUACGAGAG | -3.02 ± 0.17 | -2 ± 0.14
81 | GUUUAGCAAUAUUACGCAGG | -1.36 ± 0.2 | -2.04 ± 0.34
82 | GUUUAGCAAUAUUACGCGCC | -3.31 ± 0.43 | -2.51 ± 0.44
83 | GUUUAGCAAUAUUACGCGUG | -1.1 ± 0.071 | -0.806 ± 0.082
84 | GUUUAGCAAUAUUACGCUAG | -2.38 ± 0.16 | -0.42 ± 0.13
85 | GUUUAGCAAUAUUACGGAAG | -2.59 ± 0.23 | -0.848 ± 0.22
86 | GUUUAGCAAUAUUACGGCGG | -3.27 ± 0.44 | –
87 | GUUUAGCAAUAUUACGGGUU | – | -2.92 ± 0.35
88 | GUUUAGCAAUAUUACGGUGC | -1.02 ± 0.32 | 0.233 ± 0.44
89 | GUUUAGCAAUAUUACGUACG | -2.01 ± 0.14 | -0.33 ± 0.17
90 | GUUUAGCAAUAUUACGUUAG | -2.24 ± 0.21 | -0.81 ± 0.18
91 | GUUUAGCAAUAUUACGUUUU | -2.72 ± 0.14 | -1.65 ± 0.18
92 | UAAAAGCAAUAUUACGAAAC | -2.8 ± 0.19 | -3.3 ± 0.43
93 | UAAAAGCAAUAUUACGAAUC | -4.16 ± 0.42 | -2.13 ± 0.21
94 | UAAAAGCAAUAUUACGAGGA | -2.79 ± 0.17 | -1.54 ± 0.14
95 | UAAAAGCAAUAUUACGAGUA | -1.26 ± 0.068 | -0.418 ± 0.082
96 | UAAAAGCAAUAUUACGAUUC | -2.85 ± 0.17 | -1.02 ± 0.2
97 | UAAAAGCAAUAUUACGCAUU | -3.33 ± 0.19 | -2.15 ± 0.19
98 | UAAAAGCAAUAUUACGCCAC | – | -2.02 ± 0.36
